Where two headings read alike, the source gives them in different places.
Experiments:
[1] = molecular target: human V158 FcγRIIIa (human) (UniProt P08637); test: Biacore
[2] = molecular target: recombinant human FcγRIIb protein (human) (UniProt P31994); test: Biacore
FcγRIIaR (human) = FcγRIIaR (human) (UniProt P12318); test: Biacore
[3] = molecular target: human H131 FcγRIIa (human) (UniProt P12318); test: Biacore
human FcγRI (human) [4] = molecular target: human FcγRI (human) (UniProt P12314); test: Biacore
Sequence of human FcγRI (human) (P12314 16-288 limits assumed): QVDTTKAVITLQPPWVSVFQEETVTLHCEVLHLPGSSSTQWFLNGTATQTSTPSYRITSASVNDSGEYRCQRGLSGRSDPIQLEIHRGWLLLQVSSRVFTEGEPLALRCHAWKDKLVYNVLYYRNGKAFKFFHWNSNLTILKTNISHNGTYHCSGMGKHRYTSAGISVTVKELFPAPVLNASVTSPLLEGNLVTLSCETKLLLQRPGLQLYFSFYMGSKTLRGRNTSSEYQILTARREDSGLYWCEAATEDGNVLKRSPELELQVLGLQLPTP

FcγRIIIaF (human) = FcγRIIIaF (human) (UniProt P08637); test: Biacore
Sequence of FcγRIIIaF (human) (P08637 17-208 limits assumed): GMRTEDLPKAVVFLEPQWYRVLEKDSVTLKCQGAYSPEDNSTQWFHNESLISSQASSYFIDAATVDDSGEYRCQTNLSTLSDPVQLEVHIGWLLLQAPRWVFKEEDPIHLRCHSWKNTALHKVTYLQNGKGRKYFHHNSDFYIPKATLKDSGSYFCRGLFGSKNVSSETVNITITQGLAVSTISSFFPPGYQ

[5] = molecular target: IgE (from a human IgE ELISA kit, Bethyl Laboratories) (human) (UniProt P01854); test: sandwich ELISA, antibody coated as capture; the concentration is that of IgE
Sequence of IgE (from a human IgE ELISA kit, Bethyl Laboratories) (human) (P01854 other isoform, or with tags, fused parts or gaps): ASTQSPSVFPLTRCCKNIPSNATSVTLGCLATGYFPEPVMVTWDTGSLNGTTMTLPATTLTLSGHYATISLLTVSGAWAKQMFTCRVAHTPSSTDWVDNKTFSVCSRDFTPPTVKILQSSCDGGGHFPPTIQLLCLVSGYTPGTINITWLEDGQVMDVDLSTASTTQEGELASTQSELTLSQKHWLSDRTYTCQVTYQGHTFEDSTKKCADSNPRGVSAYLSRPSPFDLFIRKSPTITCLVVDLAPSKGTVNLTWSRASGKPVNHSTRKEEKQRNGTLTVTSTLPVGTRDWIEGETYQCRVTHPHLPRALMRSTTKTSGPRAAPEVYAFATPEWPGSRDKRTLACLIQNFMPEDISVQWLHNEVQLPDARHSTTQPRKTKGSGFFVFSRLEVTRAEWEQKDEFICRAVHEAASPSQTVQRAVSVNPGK

[6] = molecular target: human V158 FcγRIIIa (human) (UniProt P08637); test: Biacore; remark: listed apart in the source
[7] = molecular target: recombinant human FcγRIIb protein (human) (UniProt P31994); test: Biacore; remark: listed apart in the source
[8] = molecular target: human H131 FcγRIIa (human) (UniProt P12318); test: Biacore; remark: listed apart in the source
human FcγRI (human) [9] = molecular target: human FcγRI (human) (UniProt P12314); test: Biacore; remark: listed apart in the source
[10] = molecular target: XENP12704, anti-IgE antibody containing human C3d fused to the C-terminus of Ckappa (human) (UniProt P01834); test: ELISA, CR2-Fc coated; the concentration is that of XENP12704
[11] = molecular target: recombinant human FcγRIIb protein (human) (UniProt P31994); test: Biacore SPR, antibody captured on protein A/G, FcγRIIb injected

Sequence of human V158 FcγRIIIa (human) (P08637 other isoform, or with tags, fused parts or gaps limits assumed): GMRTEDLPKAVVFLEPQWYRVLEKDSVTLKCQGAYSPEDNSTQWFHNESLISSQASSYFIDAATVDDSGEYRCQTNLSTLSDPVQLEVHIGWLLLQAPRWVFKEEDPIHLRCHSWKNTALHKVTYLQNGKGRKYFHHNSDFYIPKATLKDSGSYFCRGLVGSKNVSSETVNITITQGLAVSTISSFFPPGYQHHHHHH
Sequence of human H131 FcγRIIa (human) (P12318 other isoform, or with tags, fused parts or gaps limits assumed): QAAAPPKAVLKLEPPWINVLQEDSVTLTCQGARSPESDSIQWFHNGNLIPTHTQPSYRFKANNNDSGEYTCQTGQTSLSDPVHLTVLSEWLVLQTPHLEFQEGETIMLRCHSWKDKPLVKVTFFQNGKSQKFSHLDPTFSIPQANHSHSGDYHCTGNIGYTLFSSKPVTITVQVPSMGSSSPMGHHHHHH
Sequence of FcγRIIaR (human) (P12318 34-217 H167R limits assumed): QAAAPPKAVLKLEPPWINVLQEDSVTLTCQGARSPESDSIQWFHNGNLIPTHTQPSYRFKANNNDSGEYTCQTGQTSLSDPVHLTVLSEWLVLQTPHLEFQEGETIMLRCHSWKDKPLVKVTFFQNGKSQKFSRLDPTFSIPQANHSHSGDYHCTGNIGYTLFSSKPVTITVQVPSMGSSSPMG
Sequence of recombinant human FcγRIIb protein (human) (P31994 46-217 limits assumed): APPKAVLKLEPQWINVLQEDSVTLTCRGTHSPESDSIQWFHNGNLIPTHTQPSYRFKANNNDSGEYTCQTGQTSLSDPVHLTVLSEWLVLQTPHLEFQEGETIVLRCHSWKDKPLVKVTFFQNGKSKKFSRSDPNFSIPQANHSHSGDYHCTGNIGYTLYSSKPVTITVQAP
Sequence of XENP12562 (hSCR1-4 Fc fusion) (P20023 21-273 limits assumed): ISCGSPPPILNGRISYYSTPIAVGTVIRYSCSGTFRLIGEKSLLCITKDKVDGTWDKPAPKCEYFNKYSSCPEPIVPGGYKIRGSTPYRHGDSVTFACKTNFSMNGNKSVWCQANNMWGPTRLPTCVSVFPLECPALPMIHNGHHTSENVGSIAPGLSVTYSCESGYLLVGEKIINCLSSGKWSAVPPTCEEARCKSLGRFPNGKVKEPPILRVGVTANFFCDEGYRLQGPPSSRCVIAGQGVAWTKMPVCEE
Sequence of XENP12561 (hSCR1-2 Fc fusion) (P20023 21-148 limits assumed): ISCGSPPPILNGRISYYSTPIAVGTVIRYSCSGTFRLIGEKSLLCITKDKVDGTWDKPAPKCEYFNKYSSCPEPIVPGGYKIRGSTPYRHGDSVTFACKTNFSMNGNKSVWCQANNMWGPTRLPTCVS

| Substance | Fold [1] | Kd [1] | Fold [2] | Kd [2] | Fold (FcγRIIaR (human)) | Kd (FcγRIIaR (human)) | Fold [3] | Kd [3] | Fold (human FcγRI (human) [4]) | Kd (human FcγRI (human) [4]) | further results |
| --- | --- | --- | --- | --- | --- | --- | --- | --- | --- | --- | --- |
| L235Y (antibody) | 0.504 | 380 nM | 1.05 | 1400 nM | 1.28 | 669 nM | 1.35 | 479 nM | 0.00232 | 142 nM | – |
| L328F (antibody) | – | 58400 nM | – | 541 nM | – | 166 nM | – | – | – | 0.452 nM | Kd (FcγRIIIaF (human)): 5110 nM |
| MaE11_IgG1_G236R/L328R (antibody) | – | – | – | – | – | – | – | – | – | – | EC50 (read off the curve) [5]: 0.05 µg/mL |
| S239D (antibody) | 8.14 | 23.5 nM | 3.6 | 408 nM | 3.73 | 230 nM | – | 590 nM | 3.53 | 0.0934 nM | Fold (FcγRIIIaF (human)): 6.32; Kd (FcγRIIIaF (human)): 214 nM |
| S239E (antibody) | 3.49 | 54.8 nM | 0.803 | 1830 nM | 0.688 | 1250 nM | 0.49 | 1320 nM | 1.65 | 0.2 nM | – |
| S267A (antibody) | 0.952 | 201 nM | – | 408 nM | 4.29 | 200 nM | 1.22 | 530 nM | 1.15 | 0.287 nM | – |
| S267D (antibody) | 1.51 | 127 nM | 4.45 | 330 nM | 8.99 | 95.5 nM | 0.93 | 695 nM | 2.11 | 0.156 nM | – |
| S267E (antibody) | 0.381 | 503 nM | 20.4 | 71.9 nM | 29.5 | 29.1 nM | 0.753 | 859 nM | 2.81 | 0.117 nM | Fold [6]: 0.29; Kd [6]: 690 nM; Fold [7]: 30; Kd [7]: 60 nM; Fold [8]: 0.89; Kd [8]: 960 nM; Fold (human FcγRI (human) [9]): 1.1; Kd (human FcγRI (human) [9]): 0.26 nM |
| V266M (antibody) | 0.547 | 350 nM | 1.91 | 770 nM | 3.13 | 274 nM | 1.17 | 553 nM | 1.25 | 0.264 nM | – |
| XENP12561 (hSCR1-2 Fc fusion) (from UniProt P20023 21-148) | – | – | – | – | – | – | – | – | – | – | EC50 (read off the curve) [10]: 0.02 µg/mL |
| XENP12562 (hSCR1-4 Fc fusion) (from UniProt P20023 21-273) | – | – | – | – | – | – | – | – | – | – | EC50 (read off the curve) [10]: 0.003 µg/mL |
| anti-CD19 antibody HuAM4G7, IgG1 Fc variant S239D/I332E | – | – | – | 101 nM | – | 68.6 nM | – | 163 nM | – | 0.0374 nM | Kd (FcγRIIIaF (human)): 28.2 nM; Kd [6]: 6.8 nM; Kd [7]: 88 nM; Kd [8]: 220 nM; Kd (human FcγRI (human) [9]): 0.14 nM |
| anti-CD19 antibody HuAM4G7, WT (native) IgG1 Fc | – | 191 nM | – | 1470 nM | 1 | 859 nM | – | 646 nM | – | 0.329 nM | Fold [6]: 1; Kd [6]: 200 nM; Fold [7]: 1; Fold [8]: 1; Kd [8]: 850 nM; Fold (human FcγRI (human) [9]): 1; Kd (human FcγRI (human) [9]): 0.28 nM; Kd [11]: 1800 nM |
| anti-CD19 antibody HuAM4G7, WT (native) IgG1 Fc (antibody; other documents disagree on this pair) | – | – | – | – | – | – | – | – | – | – | Fold (FcγRIIIaF (human)): 1; Kd (FcγRIIIaF (human)): 1350 nM |

The remaining substances from weak to strong by Kd [2], led by results:

| Fold [1] | Kd [1] | Fold [2] | Kd [2] | Fold (FcγRIIaR (human)) | Kd (FcγRIIaR (human)) | Fold [3] | Kd [3] | Fold (human FcγRI (human) [4]) | Kd (human FcγRI (human) [4]) | Substance | further results |
| --- | --- | --- | --- | --- | --- | --- | --- | --- | --- | --- | --- |
| 0.0448 | 4270 nM | 29.2 | 50.2 nM | 30.7 | 28 nM | 10.9 | 59.2 nM | 1.98 | 0.166 nM | V266M/S267E (antibody) | – |
| 0.00894 | 21400 nM | 30.9 | 47.5 nM | 29.3 | 29.3 nM | 2.66 | 243 nM | 2.3 | 0.143 nM | S267E/A327E (antibody) | – |
| 3.15 | 60.8 nM | 40.6 | 36.1 nM | 41.7 | 20.6 nM | 0.765 | 845 nM | 3.52 | 0.0935 nM | S267E/H268E (antibody) | – |
| – | 579 nM | – | 26.6 nM | – | – | – | 2730 nM | – | 3.71 nM | anti-CD19 antibody HuAM4G7, IgG1 Fc variant G236D/S267E | Kd [7]: 25 nM; Kd [8]: 2200 nM; Kd (human FcγRI (human) [9]): 3.2 nM |
| 0.428 | 447 nM | 69.9 | 21 nM | 48.2 | 17.8 nM | 0.157 | 4130 nM | 0.0103 | 32.1 nM | L235Y/S267E/H268E (antibody) | – |
| 3.74 | 51.2 nM | 111 | 13.3 nM | 120 | 7.16 nM | 1.27 | 510 nM | 23.2 | 0.0142 nM | anti-CD19 antibody HuAM4G7, IgG1 Fc variant S239D/S267E | Fold (FcγRIIIaF (human)): 2.62; Kd (FcγRIIIaF (human)): 516 nM; Fold [6]: 3; Kd [6]: 62 nM; Fold [7]: 150; Kd [7]: 12 nM; Fold [8]: 1.2; Kd [8]: 700 nM; Fold (human FcγRI (human) [9]): 1.6; Kd (human FcγRI (human) [9]): 0.17 nM |
| 2.6 | 73.5 nM | 116 | 12.6 nM | 98.9 | 8.68 nM | 1.05 | 617 nM | 1.07 | 0.307 nM | L235Y/S239D/S267E (antibody) | – |
| 0.038 | 5040 nM | 242 | 6.06 nM | 275 | 3.12 nM | 0.7 | 923 nM | 1.5 | 0.22 nM | anti-CD19 antibody HuAM4G7, IgG1 Fc variant S267E/L328F | Fold [7]: 429; Kd [7]: 4.2 nM; Fold [8]: 0.97; Kd [8]: 880 nM; Fold (human FcγRI (human) [9]): 1.2; Kd (human FcγRI (human) [9]): 0.23 nM |
| 0.092 | 2080 nM | 344 | 4.26 nM | 253 | 3.4 nM | 0.826 | 783 nM | 0.991 | 0.333 nM | S267E/H268E/L328F (antibody) | – |
| 0.216 | 887 nM | 428 | 3.43 nM | 416 | 2.06 nM | 1.71 | 378 nM | 1.45 | 0.227 nM | S239D/S267E/L328F (antibody) | – |
